In the nanobody polyreactivity screen of Harvey et al. (2022):

Assay: yeast display, Sf9 membrane polyspecificity reagent, FACS + sequencing; frameworks hold sequencing errors
How it was run: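 Using colony PCR, genes from sorted yeast display clones were amplified, then sequenced on MiSeq at 2 × 250 and filtered by CDR length. The clones had been stained with 10% biotinylated, detergent-solubilized Sf9 membrane reagent for 1 hour at 4 °C and sorted by FACS into low and high (top ~1%) gates on anti-HA and streptavidin fluorescence. Polyreactivity labels come from the gate of origin.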

| Sequence | polyreactivity (PSR sort gate) |
| --- | --- |
| QVQLVESGRGLVQAGGTLRLSCAASGSTFNKYAMGWYRQAPGKERELVAAIRSNGVRTYYADSVKVRLTISRDNAKNTVYLQMNSLNPEDTAVYYCNKRYTYRYDYWGQGTQVTVSS | high polyreactivity |
| QVQLVESGVALVQAAGSLRLRCAAYGSTFSYNAMGWYRQATGKERELVAAISGSGGTTYYADSVKGRFTISRDNAKNTVYLQMNSLKPEDTAVYYCAAELTRYRYFYHKRPMDYWGQGTQVTVSS | low polyreactivity |
| QVQLVESGVCLDQAGGSLRLSCAASGRTFDYNAMGWYSQAPGKERELVAAIDSDGSTNYADSVKGRFTISRDNAKNTVYLQMNSLKPEDTAVYYCAASTLVVWKPGWQVEYGYWGQGTQVTVSS | low polyreactivity |
| QVQLVESGVCLVQAGGSLRLSCAASGRIFYNYAMGWYRQAPGKERELVADISSSGTLTYYSDSVKGRFTISRDNAKNTVYLHMNSLKPEDTAVYYCAARYWFRFQYDYWGQGTQLTVSS | high polyreactivity |
| QVQLVESGVGIVQAGGSLRLSCAASGFTFSSNAMGWYSQAPGKEREFVADISIIGGDTTYADSVKGRFTISRDNAKNTVYFQMNSLKAEDTADYYCIAKPPGWFWGGFSYNRYYYWGQGTQVTVSS | low polyreactivity |
| QVQLVESGVGIVQAGGSLRLSCAASGRIFARNAMVWYRHAPGKERELVATIRVGGGSTYYADSVKGRFTISRDNAKNTVYLQMNSLKPEDTAVYYCAVRQLYSYPGDRRGYYWGQGTQVTVSS | low polyreactivity |
| QVQLVESGVGIVQAGGSLRLSCAASGRISYFNAMGWYRQAPGKERELVAAIRRSGGITYYADSVKGRFTISRDNAKNTVYLQMNSLKPEDTAVYYFATERYSWAERDFGYWGQGTLVTVSS | low polyreactivity |
| QVQLVESGVGLDQAGGSLRLSCAASGSTFFVNAMGWYRQAPGKEMELVAAISTSGGRTYYADSVKGRFRISRDNAKNNLYLQMKSLKPEDTAVYYGAAVSLSGGYGEYDYWGQGTKVTVSS | high polyreactivity |
| QVQLVESGVGLGQAGGSLRLSCAASGRTYWRYAMGWYRQAPGKETELVASINWNGGSTYYADSVKGRFTNSRDNAKNTVYLQMNSLKPEDTAVYYCAALRWPVYLFDYWGQGTQVTVSS | high polyreactivity |
| QVQLVESGVGLVQAGGILRLSCAASGSIFWPNAMGWYRHAPGKERELVAGISYSGGRTYYADSVKARFTISRDNEKNTVYLQMNSLKPEDTAVYYCTARRSSGYGYWGQGTHVTVSS | high polyreactivity |
| QVQLVESGVGLVQAGGSHRLSCSASGSIIEENSMGWYRQAPGKERELVAAITIGGRTNYADSVKGRFTISRDNAKNTVYLQMNSLKPEDTAVYYCAADLSSNKYFRFWTRYYYWGQGTQVTVSS | low polyreactivity |
| QVQLVESGVGLVQAGGSLLLSCSSSGRIFDLNAMGWYRQAPGKERELVAVIDRDGSTYYADSVKGRFTISRDNAKNTVYLQMNSLKPEDTAVYYCNKYWYSRHVRYWAYYAEQRYDYWGQGTQVTVSS | low polyreactivity |
| QVQLVESGVGLVQAGGSLRISCAASRSTFWNNCMGWYRQAPGKERDLVAAITVRGGSTYYADSVKGRFTISRDNAKNTVYLQMNSLKPEDTAVYFCAADRWLYSWFFNYDQGDYWGQGTQVSVSS | low polyreactivity |
| QVQLVESGVGLVQAGGSLRLICAASGFIFFGNAMGWYRQAPGKERQLVAVITWSGGSTYADSVKGRFTISRDNAKNTVYLQMNSLKPEDTAVYYCAADQQTWWQYSLINEYDYWGQGTQVTVSS | low polyreactivity |
| QVQLVESGVGLVQAGGSLRLLCAASGSIFTTYPMGWYRPAPGKERELVAAITSSSGSTYYADSVKGRFTISRDNAKNTVYLQMNSLKPEDTAVYYCNATYSAAVDYWGQGTQVTVSS | low polyreactivity |
| QVQLVESGVGLVQAGGSLRLRCAASGSILGGNAMGWYRQAPGKERELVAAITFSGGGTYYADSVKGRFTISRDNAKNTVYLQMNSRKPEDTAVYYCNAFAPDYYHVYPAEDYWGQGTQVTVSS | low polyreactivity |
| QVQLVESGVGLVQAGGSLRLSCAASGFIFGYYTMGWYRQAPGNERELVAAITYRGGSTYYAYSVKGRFTISRDNAKNTVYLQMNRLKPEDTAVYYCAIRTNVGHDSWGQGTEVTVSS | high polyreactivity |
| QVQLVESGVGLVQAGGSLRLSCAASGFIFYPNAMGWYRQAPGKEREWVAVITGGGSTRYADSVKGRFTISRDNAKNTVYLQMNSLKPEDTAVYYCAVGTVYLTYRGYEYWGQGTQVTVSS | high polyreactivity |
| QVQLVESGVGLVQAGGSLRLSCAASGFILGQYTMGWYRQAPGKERELVAAISSSGSTNYADSVKGRFTISRDNAKNTVYLQMNSLKPEDTAVYYCNGDGNPDFYYSFYDEYDYWGQGTQVTVSS | low polyreactivity |
| QVQLVESGVGLVQAGGSLRLSCAASGFSFAVYGMGSYIQAPGKQRELVAAISTGDSTKYADSVKARFTISRDNAKNTVYLQKNSLKPEDTEVYYCAARIPWSPWLGYWGQGTQVTVST | high polyreactivity |
| QVQLVESGVGLVQAGGSLRLSCAASGFTFCPYDKGWYRQAPGKERELVAVIIGGDSTNYADSVKGRFTISRDNAKNTVYLLMNSLKPEDTAVYYCASDYIDRVGWMDYWGQGTQVTVSS | low polyreactivity |
| QVQLVESGVGLVQAGGSLRLSCAASGFTFNYNAMGWYRQAPGKERELVADISRSGGSTYYADSVKGRFTISRDNAKNTVYLQMNSLKPEDTPVYYCAAVRAIGKYGYWGHGTQVTVSS | high polyreactivity |

| Sequence | polyreactivity (PSR sort gate) |
| --- | --- |
| QVQLVESGVGLVQAGGSLRLSCAASGITFEGYAMGWYRQAPGKERELVAAIRSSGTSTYYADSVKGRFTMSRDNAKNTVYLQMNSLKPEDTAVYYCNRARSSSRYDYWGQGTQVTVSS | low polyreactivity |
| QVQLVESGVGLVQAGGSLRLSCAASGLILANYAMGWYRQAPGKERELVAAISSSGGSTYYADSVKGRFTISRDNAKNTVYLQMNSLKPEDTAVYYCAAYPLYRRRWTGDYWGQGTQVTVSS | high polyreactivity |
| QVQLVESGVGLVQAGGSLRLSCAASGLILYTYAMGWYRQAPGKESELVAAINSGGRTNYADSVKGRFTISRDNAKNSVYLQMNSLKPEDTAVYYCAADYGSRVRGFNYWGQGTQVTVSS | low polyreactivity |
| QVQLVESGVGLVQAGGSLRLSCAASGLTFVDNVMGWYRQAPRTERELVADISSSGGSTYADSVKGRFTISRDNAKNTVYFQMNSLKPEDTAVYYCAAGDDSSGEQVDYWGQGTQVTVSS | low polyreactivity |
| QVQLVESGVGLVQAGGSLRLSCAASGLTFYSYAMGWSRQAPGKERELVATISRNGGPTRYADSVKGRFTISRDNAKNTVYLQMNSLKPEDTAVYYCTYVQSGEYDYWGQGTQVTVSS | high polyreactivity |
| QVQLVESGVGLVQAGGSLRLSCAASGNTFGKYAMGWYRQAPGTERELVATITRRGGSTYYADSVKGRFTISRDKAKNSVYLQMNSLKPEDTAVYYCNRAVTYVTYVYWGQGTQVTVSS | high polyreactivity |
| QVQLVESGVGLVQAGGSLRLSCAASGRIFNDNAMGWYSQAPGKERELVAAISTGGSTNYADSVKWRFTISRDNAKNTVYLQMNSLKPEDTEVYYCAADHPVTYETSKFDYWGQGTQVTVSS | low polyreactivity |
| QVQLVESGVGLVQAGGSLRLSCAASGRIFNRYAMGWYRQAPGKERELVAAITGSGGRTYYADSVKGRFTISRDNAKNTVYVVRISMKPEDTAVYFCAKYYPEYPAYGRGDYWGQGTQVTVSS | low polyreactivity |
| QVQLVESGVGLVQAGGSLRLSCAASGRIFNSYAMGWYRQAPGKERELVAAISRNGGITYYADSVKGRFTISRDNAKNTVYLQMNSLKPEDTAVYYCAADGLTPKAIWTSDYWGQGTQVTVSS | high polyreactivity |
| QVQLVESGVGLVQAGGSLRLSCAASGRIFRLYAMGWYRQAPGKERELVAAISSSGGDTYYADSVKGRFTISRDNAKNTVYLQMNSLKPEDTAVYDCNARKRYANVHYNYWGQGTQVTVSS | high polyreactivity |
| QVQLVESGVGLVQAGGSLRLSCAASGRIFTSNAMGWYRQAPGKERELVAAIHRGGSTYYADSVKGRFTISRDNAKNTVYLQMNSLKPEDTAVYYCNAYRKSARSGGHYDYWGQGTQVTVSS | low polyreactivity |
| QVQLVESGVGLVQAGGSLRLSCAASGRIFYGYAMGWYRQAPGKEREFVARINVSGTSTFYADSVKGRFTISRDNAKNTVYLQMSSLKPEDTAVYDCAARGLPPNDYCYVHGYIMDYWGQGTQVTVSS | low polyreactivity |
| QVQLVESGVGLVQAGGSLRLSCAASGRIFYRNAMGWYRQAPGKEREFVAAITFRSGGTYYADSVKGRFTISRDNAKNTVYLQMNSLKPEDTAVYYCATRYLGASRYGYWGQGTQVTVSS | high polyreactivity |
| QVQLVESGVGLVQAGGSLRLSCAASGRILYPNTMGWYRQAPGKERELVAAISGSGYRTYYADSVKGRFTISRDNAKNTVYLQMNSLKPEDTAVYYCAASGYWPFRSGFGYWGQGTQVTVSS | high polyreactivity |
| QVQLVESGVGLVQAGGSLRLSCAASGRTFAIYTMGWYRQAPGKERELVARISIRGGSTYYADSVKGRFTISRDTAKITFYLQLTSLKPEDNAVYYCAAVGYFGGYRYDYWGQGTQVSVSS | high polyreactivity |
| QVQLVESGVGLVQAGGSLRLSCAASGRTFDVYAMGWYRQAPGKERELVAAISRGGSTYYADSVKGRFTISRDNAKNTVYLQMNSLKPEDTAVYYCNKAYSSTRGYGYWGQGTQVTVSS | high polyreactivity |
| QVQLVESGVGLVQAGGSLRLSCAASGRTFPYYAMGWYRQAPGKERELVAAISRRGASTYYADSVKGRFTISRDNAKNTVYLQINSLKPEDTAVYYCNAVYRGYYSGELDYWGQGTQVTVSS | high polyreactivity |
| QVQLVESGVGLVQAGGSLRLSCAASGRTFRSYTMGWYRQAPGKERELVAAINRGDRTYADSVKGRFTISRDNAKNTVYLQMNSLKPEDTAVYYCNARYYTHRYDYWGQGTQVTVSS | high polyreactivity |
| QVQLVESGVGLVQAGGSLRLSCAASGRTFSRNAMGWYRQAPGKERELVAAISRSGGSTYYADSVKGRFTISRDNAKNTVYLQMNSLKPEDTAVYYCNADVYSTYYNYNYWGQGTQVTVSS | high polyreactivity |
| QVQLVESGVGLVQAGGSLRLSCAASGSIFEYYTMGWYRQAPGKERELVAAISSDGSTNYADSVTGRFTISRDDAKTTVYLQMISLKPEDTAVDYCASSTSRFYYYRKRGYWGQGTQVTVSS | low polyreactivity |
| QVQLVESGVGLVQAGGSLRLSCAASGSIFTYYAMGWYRQAPGKEREFVAGISWSGGRTYYADSVKGRFTISRDNAKNTVYLQMNSLKPEDTAVYYCNRQYRYIPSPCDYWGQGTQVTVSS | low polyreactivity |
